Where “and” joins values, the source holds several entries; their conditions need not be identical. Equal values may be shown once. Values belong to the substance of their own block, whether it stands above or below them.
Columns and labels:
[1] = biological target: D3H44 Fab heavy chain Q179R, C-terminal ABD2-His6 tag; assay: LCCA: heavy chain co-expressed with two light chains, SPR detection of light chain tags; L1:L2 DNA 1:3, normalized to 1:1; competing light chain m11
[2] = biological target: D3H44 Fab heavy chain L143E_K145T_S188L, C-terminal ABD2-His6 tag; assay: as above
[3] = biological target: D3H44 Fab heavy chain S186K, C-terminal ABD2-His6 tag; assay: as above
[4] = biological target: D3H44 Fab heavy chain L143E_K145T_S188L, C-terminal ABD2-His6 tag; assay: LCCA: heavy chain co-expressed with two light chains, SPR detection of light chain tags; L1:L2 DNA 1:9, normalized to 1:1; competing light chain m11
[5] = biological target: D3H44 Fab heavy chain S186K, C-terminal ABD2-His6 tag; assay: as above
[6] = biological target: D3H44 Fab heavy chain L143E_K145T_Q179E_S188L, C-terminal ABD2-His6 tag; assay: LCCA: heavy chain co-expressed with two light chains, SPR detection of light chain tags; L1:L2 DNA 1:3, normalized to 1:1; competing light chain m20
[7] = biological target: D3H44 Fab heavy chain S186R, C-terminal ABD2-His6 tag; assay: as above
[8] = biological target: D3H44 Fab heavy chain L143R, C-terminal ABD2-His6 tag; assay: LCCA: heavy chain co-expressed with two light chains, SPR detection of light chain tags; L1:L2 DNA 1:3, normalized to 1:1; competing light chain m18
[9] = biological target: D3H44 Fab heavy chain L143E_K145T, C-terminal ABD2-His6 tag; assay: as above
[10] = biological target: D3H44 Fab heavy chain L143R, C-terminal ABD2-His6 tag; assay: LCCA: heavy chain co-expressed with two light chains, SPR detection of light chain tags; L1:L2 DNA 1:3, normalized to 1:1; competing light chain m19
[11] = biological target: D3H44 Fab heavy chain L143E_K145T, C-terminal ABD2-His6 tag; assay: as above
[12] = biological target: D3H44 Fab heavy chain L143E_K145T, C-terminal ABD2-His6 tag; assay: LCCA: heavy chain co-expressed with two light chains, SPR detection of light chain tags; L1:L2 DNA 1:3, normalized to 1:1; competing light chain m13
[13] = biological target: D3H44 Fab heavy chain Q179R, C-terminal ABD2-His6 tag; assay: LCCA: heavy chain co-expressed with two light chains, SPR detection of light chain tags; L1:L2 DNA 1:3, normalized to 1:1; competing light chain m12
[14] = biological target: D3H44 Fab heavy chain L143E_K145T_S188L, C-terminal ABD2-His6 tag; assay: as above
[15] = biological target: D3H44 Fab heavy chain S186K, C-terminal ABD2-His6 tag; assay: as above
[16] = biological target: D3H44 Fab heavy chain S186K, C-terminal ABD2-His6 tag; assay: LCCA: heavy chain co-expressed with two light chains, SPR detection of light chain tags; L1:L2 DNA 1:9, normalized to 1:1; competing light chain m13
[17] = biological target: D3H44 Fab heavy chain L143E_K145T, C-terminal ABD2-His6 tag; assay: as above
[18] = biological target: D3H44 Fab heavy chain L143E_K145T_S188L, C-terminal ABD2-His6 tag; assay: LCCA: heavy chain co-expressed with two light chains, SPR detection of light chain tags; L1:L2 DNA 1:9, normalized to 1:1; competing light chain m12
[19] = biological target: D3H44 Fab heavy chain S186K, C-terminal ABD2-His6 tag; assay: as above
[20] = biological target: D3H44 Fab heavy chain L143E_K145T_S188L, C-terminal ABD2-His6 tag; assay: LCCA: heavy chain co-expressed with two light chains, SPR detection of light chain tags; L1:L2 DNA 1:3, normalized to 1:1; competing light chain m14
[21] = biological target: D3H44 Fab heavy chain Q179K, C-terminal ABD2-His6 tag; assay: as above
[22] = biological target: D3H44 Fab heavy chain S186K, C-terminal ABD2-His6 tag; assay: as above
[23] = biological target: D3H44 Fab heavy chain L143E_K145T_S188L, C-terminal ABD2-His6 tag; assay: LCCA: heavy chain co-expressed with two light chains, SPR detection of light chain tags; L1:L2 DNA 1:3, normalized to 1:1; competing light chain m16
[24] = biological target: D3H44 Fab heavy chain Q179K, C-terminal ABD2-His6 tag; assay: as above
[25] = biological target: D3H44 Fab heavy chain Q179K, C-terminal ABD2-His6 tag; assay: LCCA: heavy chain co-expressed with two light chains, SPR detection of light chain tags; L1:L2 DNA 1:3, normalized to 1:1; competing light chain m15
[26] = biological target: D3H44 Fab heavy chain L143E_K145T, C-terminal ABD2-His6 tag; assay: as above
[27] = biological target: D3H44 Fab heavy chain L143E_K145T_S188L, C-terminal ABD2-His6 tag; assay: LCCA: heavy chain co-expressed with two light chains, SPR detection of light chain tags; L1:L2 DNA 1:9, normalized to 1:1; competing light chain m17
[28] = biological target: D3H44 Fab heavy chain L143R, C-terminal ABD2-His6 tag; assay: as above
[29] = biological target: D3H44 Fab heavy chain L143E_K145T_S188L, C-terminal ABD2-His6 tag; assay: LCCA: heavy chain co-expressed with two light chains, SPR detection of light chain tags; L1:L2 DNA 1:3, normalized to 1:1; competing light chain m17
[30] = biological target: D3H44 Fab heavy chain L143R, C-terminal ABD2-His6 tag; assay: as above
[31] = biological target: D3H44 Fab heavy chain L143K_D146G; assay: LCCA, L1:L2 DNA 1:3 normalised to 1:1, SPR of light chain tags; competitor m34
[32] = biological target: D3H44 Fab heavy chain L143E_K145T; assay: as above
[33] = biological target: D3H44 Fab heavy chain L143R, C-terminal ABD2-His6 tag; assay: LCCA: heavy chain co-expressed with two light chains, SPR detection of light chain tags; L1:L2 DNA 1:3, normalized to 1:1; competing light chain m11
[34] = biological target: D3H44 Fab heavy chain L143R, C-terminal ABD2-His6 tag; assay: LCCA: heavy chain co-expressed with two light chains, SPR detection of light chain tags; L1:L2 DNA 1:9, normalized to 1:1; competing light chain m11
[35] = biological target: tissue factor (TF) antigen (UniProt P13726); assay: SPR; log change of median KD against wild-type D3H44 Fab
[36] = biological target: tissue factor (TF) antigen (UniProt P13726); assay: SPR; log change of median KD against wild-type D3H44 Fab; estimated (*) from a Fab that differs only in the L chain tag
[37] = biological target: tissue factor (TF) antigen (UniProt P13726); assay: SPR, Fab captured by anti-penta-His, TF injected, 1:1 fit; estimated (*) from a Fab that differs only in the L chain tag
[38] = biological target: tissue factor (TF) antigen (UniProt P13726); assay: SPR, Fab captured by anti-penta-His, TF injected, 1:1 fit
[39] = biological target: D3H44 Fab heavy chain L143E_K145T, C-terminal ABD2-His6 tag; assay: LCCA: heavy chain co-expressed with two light chains, SPR detection of light chain tags; L1:L2 DNA 1:3, normalized to 1:1; competing light chain m11
[40] = biological target: D3H44 Fab heavy chain L143E_K145T, C-terminal ABD2-His6 tag; assay: LCCA: heavy chain co-expressed with two light chains, SPR detection of light chain tags; L1:L2 DNA 1:9, normalized to 1:1; competing light chain m11
[41] = biological target: D3H44 Fab heavy chain L143E_K145T_Q179E_S188L, C-terminal ABD2-His6 tag; assay: LCCA: heavy chain co-expressed with two light chains, SPR detection of light chain tags; L1:L2 DNA 1:3, normalized to 1:1; competing light chain m12
[42] = biological target: D3H44 Fab heavy chain S186R, C-terminal ABD2-His6 tag; assay: as above

H2L2:H2L1 normalized median ratio [1]: 95%
H1L1:H1L2 normalized median ratio [2]: 26%
H2L2:H2L1 normalized median ratio [3]: 94%
H1L1:H1L2 normalized median ratio [4]: 16%
H2L2:H2L1 normalized median ratio [5]: 89%
H1L1:H1L2 normalized median ratio [6]: 17%
H2L2:H2L1 normalized median ratio [7]: 88%
Substance: D3H44 light chain Q124E_S131T_T178Y_T180E, N-terminal HA or FLAG tag

H2L2:H2L1 normalized median ratio [8]: 88%
H1L1:H1L2 normalized median ratio [9]: 15%
Substance: D3H44 light chain Q124E_V133E_Q160M, N-terminal HA or FLAG tag

H2L2:H2L1 normalized median ratio [10]: 12%
H1L1:H1L2 normalized median ratio [11]: 85%
H1L1:H1L2 normalized median scalar value ln(r1/f1) [11]: 1.77
Substance: D3H44 light chain Q124R, N-terminal HA or FLAG tag

H1L1:H1L2 normalized median ratio [12]: 82%
H1L1:H1L2 normalized median scalar value ln(r1/f1) [12]: 1.77
H2L2:H2L1 normalized median ratio [13]: 5%
H1L1:H1L2 normalized median ratio [14]: 74%
H1L1:H1L2 normalized median scalar value ln(r1/f1) [14]: 1.03
H2L2:H2L1 normalized median ratio [15]: 6%
H2L2:H2L1 normalized median ratio [16]: 10%
H1L1:H1L2 normalized median ratio [17]: 81%
H1L1:H1L2 normalized median scalar value ln(r1/f1) [17]: 1.44
H1L1:H1L2 normalized median ratio [18]: 84%
H1L1:H1L2 normalized median scalar value ln(r1/f1) [18]: 1.65
H2L2:H2L1 normalized median ratio [19]: 11%
H1L1:H1L2 normalized median ratio [20]: 57%
H1L1:H1L2 normalized median scalar value ln(r1/f1) [20]: 0.28 and 0.23
H2L2:H2L1 normalized median ratio [21]: 3%
H2L2:H2L1 normalized median ratio [22]: 3%
H1L1:H1L2 normalized median ratio [23]: 59%
H1L1:H1L2 normalized median scalar value ln(r1/f1) [23]: 0.37
H2L2:H2L1 normalized median ratio [24]: 3%
H2L2:H2L1 normalized median ratio [25]: 2%
H1L1:H1L2 normalized median ratio [26]: 47%
H1L1:H1L2 normalized median scalar value ln(r1/f1) [26]: -0.14
H1L1:H1L2 normalized median ratio [27]: 86%
H1L1:H1L2 normalized median scalar value ln(r1/f1) [27]: 1.79
H2L2:H2L1 normalized median ratio [28]: 21%
H1L1:H1L2 normalized median ratio [29]: 74%
H1L1:H1L2 normalized median scalar value ln(r1/f1) [29]: 1.04
H2L2:H2L1 normalized median ratio [30]: 6%
Substance: D3H44 light chain Q124R_Q160K_T178R, N-terminal HA or FLAG tag

H2L2:H2L1 normalized median ratio [31]: 91%
H1L1:H1L2 normalized median ratio [32]: 33%
Substance: D3H44 light chain Q124E_V133D

H1L1:H1L2 normalized median ratio [2]: 26%
H2L2:H2L1 normalized median ratio [33]: 94%
H1L1:H1L2 normalized median ratio [4]: 14%
H2L2:H2L1 normalized median ratio [34]: 79%
Substance: D3H44 light chain Q124E_V133E_S176L, N-terminal HA or FLAG tag

Change in median values of KD of h1l1 Fab heterodimer compared to wild type (-(log(KD design)-log(KD wt))) [35]: -0.25 log units
Change in median values of KD of h1l1 Fab heterodimer compared to wild type (-(log(KD design)-log(KD wt))) [36]: -0.25 log units
Kd [37]: 0.28 nM
Kd [38]: 0.28 nM
Substance: H1L1 Fab heterodimer of LCCA sets 9589, 9587, 9588 and 9585 (D3H44 Fab, H1 L143E_K145T, L1 Q124R)

H2L2:H2L1 normalized median ratio [3]: 91%
H1L1:H1L2 normalized median ratio [39]: 18%
H2L2:H2L1 normalized median ratio [5]: 90%
H1L1:H1L2 normalized median ratio [40]: 19%
Substance: D3H44 light chain Q124E_T178E_T180E, N-terminal HA or FLAG tag

H1L1:H1L2 normalized median ratio [41]: 83%
H1L1:H1L2 normalized median scalar value ln(r1/f1) [41]: 1.62
H2L2:H2L1 normalized median ratio [42]: 12%
Substance: D3H44 light chain Q124R_T178R, N-terminal HA or FLAG tag
